The experiment has as its target MtrC_(DI,II,memb), lipid-anchored truncated MtrC comprised only of domains I and II (Shewanella oneidensis MR-1) (UniProt Q8EG34).

Substance “soluble OmcA (from UniProt Q8EG33 1-735) (natural protein)” gave a rate of reduction of 700 nM soluble OmcA by whole S. oneidensis ΔmtrC/omcA cells producing MtrC (DI,II)AB, against S. oneidensis MR-1 (fold lower rate) of 4.
